Assays:
Test in all cases: PD-L1 western blot after modulators (EM and MTAs)
Type in all cases: cell-based, human
H292 cells = conditions: NSCLC H292, 30 minutes, 3 hours, 24 hours
Source text: (§1) Cell lines were acquired from ATCC, Sigma, or DSMZ. Human non-small cell lung carcinoma (NSCLC) cell lines H292 (ATCC no. CRL-1848.), H1299 (ATCC no. CRL-5803), H520 (ATCC no. CRL-5811), CALU6 (ATCC no. HTB-56), H1975 (ATCC no. CRL-5908), H460 (ATCC no. HTB-177), H2126 (ATCC no. CCL-256), H1650 (ATCC no. CRL-5883), and H2087 (ATCC no. CRL-5922) were used for this experiment along with head and neck squamous cell carcinoma (HNSCC) cell lines BHY (DSMZ ACC 404), CAL27 (ATCC no. CRL-2095), KYSE410 (Sigma), and A253 (ATCC no. HTB-41), melanoma cell lines A375 (ATCC no. CRL-1619), COL0853 (Sigma), and MM127 (Sigma) pancreatic cancer cell lines BXPC3 (ATCC no. CRL-1687), colorectal cancer cell lines […], HCT116 (ATCC no. CCL-247EMT), and breast cancer cell lines BT549 (ATCC no. HTB-122), BT20 (ATCC no. HTB-19), and T47D (ATCC no. HTB-133). Cells were maintained in manufacturer-recommended conditions at 37° C. inside humidified 5% CO2 incubators. Sub-cultivation and harvesting for all cell lines were performed using Accutase (GIBCO Life Technologies; cat. no. A1110501) at 37° C. for 10 minutes. Cell viability was measured using trypan blue exclusion staining in conjunction with the Countess II Automated Cell Counter (Thermo Fischer Scientific; cat. no. AMQAX1000). Measurements were made in duplicate and the average number of viable cells was recorded prior to experiments.
(§2) T7039), and IL-10 (50 ng/ml; Sigma Aldrich cat. no. SRP3071) were administered to cell lines for various times including 30 minutes, 3 hour, and 24 hour time intervals prior to cell lysis and protein extraction.
(§3) To determine the effects of the aforementioned molecules on the modulation of PD-L1, we selected various NSCLC, HNSCC, breast cancer, melanoma, colorectal cancer, and pancreatic cancer cell lines as examples. Other diseases or cell lines could be used readily as could more complex samples such as cells isolated from xenografts and clinical samples. Cells were plated, for three different time points (30 minutes, 3 hours, and 24 hours), inside 6-well petri dishes with 2 mL of appropriate medium. Plates were incubated for 24 hours in 5% CO2 incubators at 37° C. After 24 hours, each 6-well plate was washed with PBS (Gibco Life Technologies, cat. no. 10010023) followed by fresh media being added along with each cell line's vehicle control or appropriate modulator for each specific time point, and were placed in CO2 incubators until their modulation time point was reached. Other conditions can be readily used, such as processing on automated systems such as SnapPath. At the end of each time point, while keeping plates on ice, cell lysis was conducted by aspirating culture medium from each plate, washing of each plate three times with 5 ml of cold PBS (Gibco Life Technologies, cat. no. 10010023) and culminated with the addition of cold 1× lysis buffer containing (Cell Signaling, cat. no. 9803 S) protease inhibitor cocktail (Cell Signaling, cat. no. 5871S), phosphatase inhibitor cocktail (Cell Signaling, cat. no. 5870S), and PMSF (Fisher Scientific, cat. no. ICN19538101). Plates were then placed on ice for ten minutes, swirling each plate intermittently. Aliquots of protein lysates were prepared and then stored at −80° C. until protein quantification and Western blot analysis was to be conducted. The protein concentration of each lysate was analyzed by using the Pierce 660 Protein Assay Reagent (Thermo Fisher Scientific, cat. no. 22660) and testing of each sample was conducted in duplicate. Two μg of protein was then loaded per lane into 10% Midi-PROTEAN TGX Precast Gels (Bio Rad, cat. no. 5671034) along with Kaleidoscope Prestained Protein Standard (BioRad, cat. no. 1610375) which ran at 220V for 45 minutes. Proteins were transferred to mini-PVDF membranes (BioRad, cat. no. 1704156) in 3 minutes using the Trans-Blot Turbo Transfer System (BioRad, cat. no. 1704150EDU).

H460 cells = conditions: NSCLC H460, 30 minutes, 3 hours, 24 hours
Source text: as §1, §2, §3

BT549 cells = conditions: Breast BT549, 30 minutes, 3 hours, 24 hours
Source text: as §1, §2, §3

H1650 cells = conditions: NSCLC H1650, 30 minutes, 3 hours, 24 hours
Source text: as §1, §2, §3

Measured: PD-L1 Response

B1: IFNγ: human IFNγ, modulator (10 ng/ml; Sigma Aldrich) (protein, UniProt P01579 24-161, looked up)
Interferon gamma: QDPYVKEAENLKKYFNAGHSDVADNGTLFLGILKNWKEESDRKIMQSQIVSFYFKLFKNFKDDQSIQKSVETIKEDMNVKFFNSNKKKRDDFEKLTNYSVTDLNVQRKAIHELIQVMAELSPAAKTGKRKRSQMLFRG
Up: all assays above

Source: patent US20220347267A1, “METHODS TO IMPROVE PATIENT RESPONSE TO IMMUNE CHECKPOINT INHIBITORS AND FUNCTIONAL TESTS TO PREDICT RESPONSE” (Biomarker Strategies, LLC, priority 2019, published 2022)
